According to PMC6598382:

Experiments:
[1] = substrate: C/C=C/C=C/C(=O)c1cc(C)c(O)c(C)c1O; assay: steady-state Michaelis-Menten kinetics; format: biochemical, Penicillium rubens; settings: native substrate
[2] = substrate: C/C=C/COC(=O)c1cc(C)c(O)c(C)c1O; assay: steady-state Michaelis-Menten kinetics; format: biochemical, Penicillium rubens

B1: SorbC (Penicillium rubens Wisconsin 54-1255) (protein)
chain: MTRSANSPFEVAIVGGGITGLALAVGLLKRNVSFTIYERAENFGELGVGITFTPNAQRAMEALDPCVLQSFTNVASAPSGGTINFVDGVREQGSEDPRTSTAALLFQLHVKGGYKACRRCDFVDQIVQHIPKDCVQYRKWLDSIETDHESGRAVLKFRDGEIAHADVVIGCDGIRSQVRASMFGTDELCPRAQYSHQLGYRGMVPLAQATAVLGPEKTSSAVLHTGPGAFVLTIPLAEVHAMHIEAFIMDKEEWPEVQTSSDSKRYVLPATRNEATKAFAEFGPTVRSAVSMFPEKLEKWAVFDMLEAPVPTFAKGRVCLAGDAAHASTPNQGGGAGFGIEDALVLAEVLAVLAEAPNVSGIVASEALAVYSEVRYERSQWLVRSSRRTGELCTWKDRDWGLAAEELSRDIISRSHQLWDHDTAGMVSDALAILGERVRGADTAF
- Km [1]: 38.6 ± 1.7 µM
- Km [2]: 17.3 ± 0.7 µM
